What was measured:
His-tagged LC3B-WT = His-tagged LC3B-WT (human, UniProt Q9GZQ8 1-120); assay: BLI
His-tagged LC3B-T50A = His-tagged LC3B-T50A (human, UniProt Q9GZQ8 1-120, T50A); assay: BLI
His-tagged LC3B-T50E = His-tagged LC3B-T50E (human, UniProt Q9GZQ8 1-120, T50E); assay: BLI
[1] = target: HA-tagged LC3B-T50A (phospho-deficient mutant) (UniProt Q9GZQ8 1-120, T50A); assay: affinity purification with mass spectrometry
[2] = target: HA-tagged LC3B-T50E (phospho-mimetic mutant) (UniProt Q9GZQ8 1-120, T50E); assay: affinity purification with mass spectrometry

Row | Kd (His-tagged LC3B-WT) [µM] | Kd (His-tagged LC3B-T50A) [µM] | Kd (His-tagged LC3B-T50E) [µM] | fold change of binding against HA-LC3B-WT [1] [fold higher] | fold change of binding against HA-LC3B-WT [2] [fold lower] | Binder
1 | ~4.1 | ~6 | ~28 |  |  | GQGANTDYRPPDDAVFDIITDEELCQIQESGSSL [FYCO1 peptide (1265–1298 amino acids of the human protein)]
2 |  |  |  | ~2 | ~5 | FYCO1 (endogenous, human cells) (natural protein) MASTNAESQLQRIIRDLQDAVTELSKEFQEAGEPITDDSTSLHKFSYKLEYLLQFDQKEKATLLGNKKDYWDYFCACLAKVKGANDGIRFVKSISELRTSLGKGRAFIRYSLVHQRLADTLQQCFMNTKVTSDWYYARSPFLQPKLSSDIVGQLYELTEVQFDLASRGFDLDAAWPTFARRTLTTGSSAYLWKPPSRSSSMSSLVSSYLQTQEMVSNFDLNSPLNNEALEGFDEMRLELDQLEVREKQLRERMQQLDRENQELRAAVSQQGEQLQTERERGRTAAEDNVRLTCLVAELQKQWEVTQATQNTVKELQTCLQGLELGAAEKEEDYHTALRRLESMLQPLAQELEATRDSLDKKNQHLASFPGWLAMAQQKADTASDTKGRQEPIPSDAAQEMQELGEKLQALERERTKVEEVNRQQSAQLEQLVKELQLKEDARASLERLVKEMAPLQEELSGKGQEADQLWRRLQELLAHTSSWEEELAELRREKKQQQEEKELLEQEVRSLTRQLQFLETQLAQVSQHVSDLEEQKKQLIQDKDHLSQQVGMLERLAGPPGPELPVAGEKNEALVPVNSSLQEAWGKPEEEQRGLQEAQLDDTKVQEGSQEEELRQANRELEKELQNVVGRNQLLEGKLQALQADYQALQQRESAIQGSLASLEAEQASIRHLGDQMEASLLAVRKAKEAMKAQMAEKEAILQSKEGECQQLREEVEQCQQLAEARHRELRALESQCQQQTQLIEVLTAEKGQQGVGPPTDNEARELAAQLALSQAQLEVHQGEVQRLQAQVVDLQAKMRAALDDQDKVQSQLSMAEAVLREHKTLVQQLKEQNEALNRAHVQELLQCSEREGALQEERADEAQQREEELRALQEELSQAKCSSEEAQLEHAELQEQLHRANTDTAELGIQVCALTVEKERVEEALACAVQELQDAKEAASREREGLERQVAGLQQEKESLQEKLKAAKAAAGSLPGLQAQLAQAEQRAQSLQEAAHQELNTLKFQLSAEIMDYQSRLKNAGEECKSLRGQLEEQGRQLQAAEEAVEKLKATQADMGEKLSCTSNHLAECQAAMLRKDKEGAALREDLERTQKELEKATTKIQEYYNKLCQEVTNRERNDQKMLADLDDLNRTKKYLEERLIELLRDKDALWQKSDALEFQQKLSAEERWLGDTEANHCLDCKREFSWMVRRHHCRICGRIFCYYCCNNYVLSKHGGKKERCCRACFQKLSEGPGSPDSSGSGTSQGEPSPALSPASPGPQATGGQGANTDYRPPDDAVFDIITDEELCQIQESGSSLPETPTETDSLDPNAAEQDTTSTSLTPEDTEDMPVGQDSEICLLKSGELMIKVPLTVDEIASFGEGSRELFVRSSTYSLIPITVAEAGLTISWVFSSDPKSISFSVVFQEAEDTPLDQCKVLIPTTRCNSHKENIQGQLKVRTPGIYMLIFDNTFSRFVSKKVFYHLTVDRPVIYDGSDFL

— publication PMC8439105 (Current biology : CB, 2021)
